# Assay results: publication PMC11344278, “Structural and biochemical characterization of the C‐terminal region of the human RTEL1 helicase” (Protein Science : A Publication of the Protein Society, 2024)
# T1: RTEL1 HHD1-2 (Homo sapiens) (UniProt Q9NZ71)
# T1 sequence: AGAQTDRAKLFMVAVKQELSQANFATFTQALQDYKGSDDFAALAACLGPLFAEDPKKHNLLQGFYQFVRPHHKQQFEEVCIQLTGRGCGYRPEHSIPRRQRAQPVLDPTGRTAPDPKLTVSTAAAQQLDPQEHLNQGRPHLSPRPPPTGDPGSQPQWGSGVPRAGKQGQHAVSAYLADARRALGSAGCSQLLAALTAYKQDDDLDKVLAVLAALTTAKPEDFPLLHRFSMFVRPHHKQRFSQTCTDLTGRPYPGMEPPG
# T2: RTEL1 CT-L (entire C-terminal region) (Homo sapiens) (UniProt Q9NZ71)
# T2 sequence (Q9NZ71 whole entry, looked up): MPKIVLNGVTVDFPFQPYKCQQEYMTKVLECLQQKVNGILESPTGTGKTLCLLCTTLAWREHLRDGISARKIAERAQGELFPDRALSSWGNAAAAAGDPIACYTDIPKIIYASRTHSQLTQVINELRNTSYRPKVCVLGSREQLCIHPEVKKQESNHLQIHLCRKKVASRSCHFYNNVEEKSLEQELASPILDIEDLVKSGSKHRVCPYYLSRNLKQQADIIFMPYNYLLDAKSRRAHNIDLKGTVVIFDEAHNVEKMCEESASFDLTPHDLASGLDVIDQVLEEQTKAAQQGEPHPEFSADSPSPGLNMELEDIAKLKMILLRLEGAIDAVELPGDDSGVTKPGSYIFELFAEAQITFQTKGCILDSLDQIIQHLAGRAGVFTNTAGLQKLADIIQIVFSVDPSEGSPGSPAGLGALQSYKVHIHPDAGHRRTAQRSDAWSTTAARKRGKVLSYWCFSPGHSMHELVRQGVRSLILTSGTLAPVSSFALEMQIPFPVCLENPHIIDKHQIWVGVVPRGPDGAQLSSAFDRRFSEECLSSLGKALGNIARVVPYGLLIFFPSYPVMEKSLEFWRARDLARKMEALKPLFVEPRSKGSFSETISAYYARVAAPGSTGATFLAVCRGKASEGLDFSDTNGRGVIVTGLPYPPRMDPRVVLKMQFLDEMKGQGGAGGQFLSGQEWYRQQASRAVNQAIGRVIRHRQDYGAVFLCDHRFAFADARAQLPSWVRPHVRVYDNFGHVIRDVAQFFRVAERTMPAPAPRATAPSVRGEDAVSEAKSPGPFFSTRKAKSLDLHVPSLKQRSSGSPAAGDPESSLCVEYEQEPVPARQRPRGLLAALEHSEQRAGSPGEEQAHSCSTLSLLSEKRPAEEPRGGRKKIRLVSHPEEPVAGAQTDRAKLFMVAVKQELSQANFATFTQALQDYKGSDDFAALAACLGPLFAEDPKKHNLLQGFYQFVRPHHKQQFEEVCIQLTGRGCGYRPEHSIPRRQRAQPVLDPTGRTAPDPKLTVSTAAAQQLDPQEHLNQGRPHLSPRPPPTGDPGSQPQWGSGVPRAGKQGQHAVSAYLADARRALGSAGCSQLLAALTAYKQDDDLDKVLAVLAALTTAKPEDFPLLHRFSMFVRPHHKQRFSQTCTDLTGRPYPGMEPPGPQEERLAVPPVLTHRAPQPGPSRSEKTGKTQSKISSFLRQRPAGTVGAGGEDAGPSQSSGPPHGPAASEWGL
# T3: RTEL1 HHD2 (Homo sapiens, UniProt Q9NZ71 1053-1147)
# T3 sequence: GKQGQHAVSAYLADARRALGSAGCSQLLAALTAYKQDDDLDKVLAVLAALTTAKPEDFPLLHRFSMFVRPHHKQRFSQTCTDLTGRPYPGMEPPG
# B1: DNA fork (D1L:D3L) (dsDNA)
# DNA 1: CTACTACCCCCACCCTCACAACCTTTTTTTTTTTTTTT
# DNA 2: TTTTTTTTTTTTTTTGGTTGTGAGGGTGGGGGTAGTAG
# B2: RNA fork (R1L:R3L) (dsRNA)
# RNA 1: CUACCCCCACCCUCACAACCUUUUUUUUUUUUUUU
# RNA 2: UUUUUUUUUUUUUUUGGUUGUGAGGGUGGGGGUA
# Columns and labels:
# [1] = target: T1, RTEL1 HHD1-2 (Homo sapiens); experiment: fluorescence anisotropy; conditions: 0.5 mM Mg2+; 20 mM Tris pH 7.5, 50 mM KCl, 0.5 mM MgCl2, 10% glycerol, 0.1% Igepal, 10 nM substrate; EMSA at room temperature 15 min (0-160 nM protein), FA at 25 C …
# [2] = target: T2, RTEL1 CT-L (entire C-terminal region) (Homo sapiens); experiment: EMSA; conditions: 0.5 mM Mg2+, 20 mM Tris pH 7.5, 50 mM KCl, 0.5 mM MgCl2, 10% glycerol, 0.1% Igepal, 10 nM substrate, EMSA at room temperature 15 min (0-160 nM protein), FA at 25 C …
# RTEL1 HHD2 = target: T3, RTEL1 HHD2; experiment: fluorescence anisotropy; 0.5 mM Mg2+; 20 mM Tris pH 7.5, 50 mM KCl, 0.5 mM MgCl2, 10% glycerol, 0.1% Igepal, 10 nM substrate; EMSA at room temperature 15 min (0-160 nM protein), FA at 25 C (0-2500 nM protein); Hill-slope fit; conditions: protein: recombinant, tags: N-terminal 6His-Trx removed by TEV
# [3] = target: T4, human PCNA (Proliferating Cell Nuclear Antigen) (human, UniProt P12004 1-261, uniformly 2H,13C,15N labelled (for NMR experiments)); experiment: ITC; 16.8 uM PCNA in the cell, 282 uM PIP1 peptide in the syringe; 35 °C; PBS pH 7.0, 1 mM TCEP; fitted to a 1:1 binding model (one set of identical sites); conditions: both partners purified
# T4 construct: 3-residue N-terminal extension left after HRV 3C cleavage, preceding the native initial methionine; human PCNA, UniProt P12004, from the native initial methionine; The methods describe only the isotopically labelled PCNA made for NMR; not shown: His6, N-terminal, cleaved
# T4 sequence (P12004 other isoform, or with tags, fused parts or gaps): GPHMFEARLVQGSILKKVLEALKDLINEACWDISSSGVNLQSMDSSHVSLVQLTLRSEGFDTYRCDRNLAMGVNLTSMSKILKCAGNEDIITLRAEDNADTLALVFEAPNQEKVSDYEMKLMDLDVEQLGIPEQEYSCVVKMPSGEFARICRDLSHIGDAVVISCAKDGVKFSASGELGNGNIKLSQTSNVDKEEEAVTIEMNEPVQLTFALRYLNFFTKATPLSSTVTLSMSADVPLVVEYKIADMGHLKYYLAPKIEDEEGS
Molecule,Kd [1] [nM],Kd [2] [nM],further results
GTACCCGGGGATCCTCTAGAGTCGACCTGCAGGCATGCAAGCTTGGCACTGGCCGTCGTTTTACAAC / GTTGTAAAACGACGGCCAGTGCCTTTTCCCAGCCTCAATCTCATCACTCTAGAGGATCCCCGGGTAC / GCUUGCAUGCCUGCAGGCCAGCCUCAAUCUCAUCUUUUU [R-loop (R4:D9:D11)],160,10,–
CTACTACCCCCACCCTCACAACC (double strand) [dsDNA (D1B:D3B)],–,63,–
TTAGGGTTAGGGTTAGGGTTAGGGTT [2JPZ telomeric G4],–,–,Kd ([2]; K+): 26 nM
CTACTACCCCCACCCTCACAACCTTTTTTTTTTTTTTT [ssDNA],247,40,–
GTACCCGGGGATCCTCTAGAGTCGACCTGCAGGCATGCAAGCTTGGCACTGGCCGTCGTTTTACAAC / GTTGTAAAACGACGGCCAGTGCCTTTTCCCAGCCTCAATCTCATCACTCTAGAGGATCCCCGGGTAC [Bubble (D9:D11)],–,27,–
UUAGGGUUAGGGUUAGGGUUAGGG [TERRA G4],38,–,Kd ([2]; K+): 10 nM
CTACTACCCCCACCCTCACAACCTTTTTTTTTTTTTTT / UUUUUUUUUUUUUUUGGUUGUGAGGGUGGGGGUA [DNA/RNA fork (D1L:R3L)],–,52,–
GTACCCGGGGATCCTCTAGAGTCGACCTGCAGGCATGCAAGCTTGGCACTGGCCGTCGTTTTACAAC / GTTGTAAAACGACGGCCAGTGCCTTTTCCCAGCCTCAATCTCATCACTCTAGAGGATCCCCGGGTAC / GCTTGCATGCCTGCAGGCCAGCCTCAATCTCATC [D-loop (D4:D9:D11)],327,11,–
CUACCCCCACCCUCACAACCUUUUUUUUUUUUUUU [ssRNA],192,46,–
CTACTACCCCCACCCTCACAACCTTTTTTTTTTTTTTT / TTTTTTTTTTTTTTTGGTTGTGAGGGTGGGGGTAGTAG [DNA fork (D1L:D3L)],155,43,–
TGAGGGTGGGTAGGGTGGGTAA [1XAV c-Myc promoter G4],–,–,Kd ([2]; K+): 57 nM
CUACCCCCACCCUCACAACCUUUUUUUUUUUUUUU / UUUUUUUUUUUUUUUGGUUGUGAGGGUGGGGGUA [RNA fork (R1L:R3L)],273,51,–
B1,–,–,"Kd (RTEL1 HHD2; label: 5' 6-FAM on strand 1, fork: 23 bp duplex, T15 arms (3' on strand 1, 5' on strand 2)): 254 ± 52 nM"
UUAGGGUUAGGGUUAGGGUUAGGG (structured_RNA) [TERRA G4],–,–,"Kd (RTEL1 HHD2; label: 5' 6-FAM, G4): 489 ± 124 nM"
QSKISSFL [RTEL1 PIP1 peptide (canonical PIP-box of human RTEL1)],–,–,Kd [3]: 53300 ± 7200 nM
B2,–,–,"Kd (RTEL1 HHD2; label: 5' 6-FAM on strand 1, fork with U15 arms (3' on strand 1, 5' on strand 2), end as printed not fully blunt): 512 ± 104 nM"
